The target in the experiment is T1, PRAME peptide on HLA-A*02:01 (human).
T1 peptide: SLLQHLIGL
Kind of experiment: multimer staining.

B1: nwTCR-1906 (TCR, V domains shown)
Valpha: RKEVEQDPGPFNVPEGATVAFNCTYSNSASQSFFWYRQDCRKEPKLLMSVYSSGNEDGRFTAQLNRASQYISLLIRDSKLSDSATYLCVVTQAGTALIFGKGTTLSVSS
Vbeta: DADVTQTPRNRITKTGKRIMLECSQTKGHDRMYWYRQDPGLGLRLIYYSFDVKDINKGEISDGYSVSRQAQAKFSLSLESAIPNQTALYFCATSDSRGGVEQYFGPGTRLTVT
For B1, the binding result was “recognises”.

B2: nwTCR-2081 (TCR, V domains shown)
Valpha: GEDVEQSLFLSVREGDSSVINCTYTDSSSTYLYWYKQEPGAGLQLLTYIFSNMDMKQDQRLTVLLNKKDKHLSLRIADTQTGDSAIYFCAESVGYGGSQGNLIFGKGTKLSVKP
Vbeta: KAGVTQTPRYLIKTRGQQVTLSCSPISGHRSVSWYQQTPGQGLQFLFEYFSETQRNKGNFPGRFSGRQFSNSRSEMNVSTLELGDSALYLCASSLEAGSFYEQYFGPGTRLTVT
As to B2, the binding result is recorded as “recognises”.

B3: nwTCR-2614 (TCR, V domains shown)
Valpha: AQTVTQSQPEMSVQEAETVTLSCTYDTSENNYYLFWYKQPPSRQMILVIRQEAYKQQNATENRFSVNFQKAAKSFSLKISDSQLGDTAMYFCAFDNNARLMFGDGTQLVVKP
Vbeta: GAVVSQHPSWVICKSGTSVKIECRSLDFQATTMFWYRQFPKQSLMLMATSNEGSKATYEQGVEKDKFLINHASLTLSTLTVTSAHPEDSSFYICSATRDSSYNEQFFGPGTRLTVL
Consider B3, for which the binding result was “recognises”.

B4: nwTCR-2228 (TCR, V domains shown)
Valpha: QKEVEQNSGPLSVPEGAIASLNCTYSDRGSQSFFWYRQYSGKSPELIMFIYSNGDKEDGRFTAQLNKASQYVSLLIRDSQPSDSATYLCAGHTGNQFYFGTGTSLTVIP
Vbeta: EPEVTQTPSHQVTQMGQEVILRCVPISNHLYFYWYRQILGQKVEFLVSFYNNEISEKSEIFDDQFSVERPDGSNFTLKIRSTKLEDSAMYFCASREDGYEQYFGPGTRLTVT
On to B4, for which the binding result is reported as “recognises”.

B5: nwTCR-2159 (TCR, V domains shown)
Valpha: QQPVQSPQAVILREGEDAVINCSSSKALYSVHWYRQKHGEAPVFLMILLKGGEQKGHDKISASFNEKKQQSSLYLTASQLSYSGTYFCGTESGRGSTLGRLYFGRGTQLTVWP
Vbeta: DSGVTQTPKHLITATGQRVTLRCSPRSGDLSVYWYQQSLDQGLQFLIQYYNGEERAKGNILERFSAQQFPDLHSELNLSSLELGDSALYFCASSPWTSGSYEQYFGPGTRLTVT
In the case of B5, the binding result was “recognises”.

B6: nwTCR-2418 (TCR, V domains shown)
Valpha: DQQVKQNSPSLSVQEGRISILNCDYTNSMFDYFLWYKKYPAEGPTFLISISSIKDKNEDGRFTVFLNKSAKHLSLHIVPSQPGDSAVYFCAASGVRGQNFVFGPGTRLSVLP
Vbeta: DSGVTQTPKHLITATGQRVTLRCSPRSGDLSVYWYQQSLDQGLQFLIQYYNGEERAKGNILERFSAQQFPDLHSELNLSSLELGDSALYFCASSPWLAGGREQYFGPGTRLTVT
In the case of B6, the binding result is recorded as “recognises”.

B7: nwTCR-2286 (TCR, V domains shown)
Valpha: GQQLNQSPQSMFIQEGEDVSMNCTSSSIFNTWLWYKQDPGEGPVLLIALYKAGELTSNGRLTAQFGITRKDSFLNISASIPSDVGIYFCAGPEDDKIIFGKGTRLHILP
Vbeta: DSGVTQTPKHLITATGQRVTLRCSPRSGDLSVYWYQQSLDQGLQFLIQYYNGEERAKGNILERFSAQQFPDLHSELNLSSLELGDSALYFCASSPWLQGGNEQFFGPGTRLTVL
Take B7: the binding result is given as “recognises”.

B8: nwTCR-2718 (TCR, V domains shown)
Valpha: GQQLNQSPQSMFIQEGEDVSMNCTSSSIFNTWLWYKQDPGEGPVLLIALYKAGELTSNGRLTAQFGITRKDSFLNISASIPSDVGIYFCAGFSQGGSEKLVFGKGTKLTVNP
Vbeta: DSGVTQTPKHLITATGQRVTLRCSPRSGDLSVYWYQQSLDQGLQFLIQYYNGEERAKGNILERFSAQQFPDLHSELNLSSLELGDSALYFCASSPWTAGGNTIYFGEGSWLTVV
With B8, the binding result is listed as “recognises”.

B9: nwTCR-1954 (TCR, V domains shown)
Valpha: QKEVEQNSGPLSVPEGAIASLNCTYSDRGSQSFFWYRQYSGKSPELIMSIYSNGDKEDGRFTAQLNKASQYVSLLIRDSQPSDSATYLCAVLRSNDYKLSFGAGTTVTVRA
Vbeta: EAQVTQNPRYLITVTGKKLTVTCSQNMNHEYMSWYRQDPGLGLRQIYYSMNVEVTDKGDVPEGYKVSRKEKRNFPLILESPSPNQTSLYFCASSPGTSGNEQFFGPGTRLTVL
As for B9, the binding result is recorded as “recognises”.

B10: nwTCR-2383 (TCR, V domains shown)
Valpha: GIQVEQSPPDLILQEGANSTLRCNFSDSVNNLQWFHQNPWGQLINLFYIPSGTKQNGRLSATTVATERYSLLYISSSQTTDSGVYFCAVMPSGTYKYIFGTGTRLKVLA
Vbeta: EAQVTQNPRYLITVTGKKLTVTCSQNMNHEYMSWYRQDPGLGLRQIYYSMNVEVTDKGDVPEGYKVSRKEKRNFPLILESPSPNQTSLYFCASSPSSGYNEQFFGPGTRLTVL
Regarding B10, the binding result is “recognises”.

B11: nwTCR-2555 (TCR, V domains shown)
Valpha: AQSVSQHNHHVILSEAASLELGCNYSYGGTVNLFWYVQYPGQHLQLLLKYFSGDPLVKGIKGFEAEFIKSKFSFNLRKPSVQWSDTAEYFCAVKMDSSYKLIFGSGTRLLVRP
Vbeta: DGGITQSPKYLFRKEGQNVTLSCEQNLNHDAMYWYRQDPGQGLRLIYYSQIVNDFQKGDIAEGYSVSREKKESFPLTVTSAQKNPTAFYLCASLGLNYNEQFFGPGTRLTVL
Turning to B11, the binding result is given as “recognises”.

B12: nwTCR-1953 (TCR, V domains shown)
Valpha: DAKTTQPNSMESNEEEPVHLPCNHSTISGTDYIHWYRQLPSQGPEYVIHGLTSNVNNRMASLAIAEDRKSSTLILHRATLRDAAVYYCILRAGGSGDKLTFGTGTRLAVRP
Vbeta: DTEVTQTPKHLVMGMTNKKSLKCEQHMGHRAMYWYKQKAKKPPELMFVYSYEKLSINESVPSRFSPECPNSSLLNLHLHALQPEDSALYLCASSQDPFWGAGELFFGEGSRLTVL
Consider B12, for which the binding result is listed as “recognises”.

B13: nwTCR-2157 (TCR, V domains shown)
Valpha: QKEVEQNSGPLSVPEGAIASLNCTYSDRGSQSFFWYRQYSGKSPELIMFIYSNGDKEDGRFTAQLNKASQYVSLLIRDSQPSDSATYLCAVPGGTSYGKLTFGQGTILTVHP
Vbeta: DTAVSQTPKYLVTQMGNDKSIKCEQNLGHDTMYWYKQDSKKFLKIMFSYNNKELIINETVPNRFSPKSPDKAHLNLHINSLELGDSAVYFCASSQGISGNTIYFGEGSWLTVV
For B13, the binding result is “recognises”.

B14: nwTCR-2523 (TCR, V domains shown)
Valpha: RKEVEQDPGPFNVPEGATVAFNCTYSNSASQSFFWYRQDCRKEPKLLMSVYSSGNEDGRFTAQLNRASQYISLLIRDSKLSDSATYLCVVNRGSQGNLIFGKGTKLSVKP
Vbeta: DAGVTQSPTHLIKTRGQQVTLRCSPKSGHDTVSWYQQALGQGPQFIFQYYEEEERQRGNFPDRFSGHQFPNYSSELNVNALLLGDSALYLCASSLVDYEQYFGPGTRLTVT
Regarding B14, the binding result was “recognises”.

B15: nwTCR-2169 (TCR, V domains shown)
Valpha: SQQGEEDPQALSIQEGENATMNCSYKTSINNLQWYRQNSGRGLVHLILIRSNEREKHSGRLRVTLDTSKKSSSLLITASRAADTASYFCATLTLNDYKLSFGAGTTVTVRA
Vbeta: EAQVTQNPRYLITVTGKKLTVTCSQNMNHEYMSWYRQDPGLGLRQIYYSMNVEVTDKGDVPEGYKVSRKEKRNFPLILESPSPNQTSLYFCATQWASGSTDTQYFGPGTRLTVL
As to B15, the binding result is “recognises”.

B16: nwTCR-2583 (TCR, V domains shown)
Valpha: GQSLEQPSEVTAVEGAIVQINCTYQTSGFYGLSWYQQHDGGAPTFLSYNALDGLEETGRFSSFLSRSDSYGYLLLQELQMKDSASYFCALGTEDKIIFGKGTRLHILP
Vbeta: EAQVTQNPRYLITVTGKKLTVTCSQNMNHEYMSWYRQDPGLGLRQIYYSMNVEVTDKGDVPEGYKVSRKEKRNFPLILESPSPNQTSLYFCASRISLGANYGYTFGSGTRLTVV
On to B16, for which the binding result was “recognises”.

B17: nwTCR-2170 (TCR, V domains shown)
Valpha: GQQLNQSPQSMFIQEGEDVSMNCTSSSIFNTWLWYKQDPGEGPVLLIALYKAGELTSNGRLTAQFGITRKDSFLNISASIPSDVGIYFCAGQASGTYKYIFGTGTRLKVLA
Vbeta: EAQVTQNPRYLITVTGKKLTVTCSQNMNHEYMSWYRQDPGLGLRQIYYSMNVEVTDKGDVPEGYKVSRKEKRNFPLILESPSPNQTSLYFCASSSGTSDEQYFGPGTRLTVT
As for B17, the binding result is on record as “recognises”.

B18: nwTCR-2285 (TCR, V domains shown)
Valpha: KNEVEQSPQNLTAQEGEFITINCSYSVGISALHWLQQHPGGGIVSLFMLSSGKKKHGRLIATINIQEKHSSLHITASHPRDSAVYICALNSDSNYQLIWGAGTKLIIKP
Vbeta: EAQVTQNPRYLITVTGKKLTVTCSQNMNHEYMSWYRQDPGLGLRQIYYSMNVEVTDKGDVPEGYKVSRKEKRNFPLILESPSPNQTSLYFCATSPGTLYEQYFGPGTRLTVT
As for B18, the binding result is “recognises”.

B19: nwTCR-2719 (TCR, V domains shown)
Valpha: GIQVEQSPPDLILQEGANSTLRCNFSDSVNNLQWFHQNPWGQLINLFYIPSGTKQNGRLSATTVATERYSLLYISSSQTTDSGVYFCAVLAPGTYKYIFGTGTRLKVLA
Vbeta: EAQVTQNPRYLITVTGKKLTVTCSQNMNHEYMSWYRQDPGLGLRQIYYSMNVEVTDKGDVPEGYKVSRKEKRNFPLILESPSPNQTSLYFCASSWGSGYEQYFGPGTRLTVT
Consider B19, for which the binding result was “recognises”.

B20: nwTCR-2316 (TCR, V domains shown)
Valpha: TQLLEQSPQFLSIQEGENLTVYCNSSSVFSSLQWYRQEPGEGPVLLVTVVTGGEVKKLKRLTFQFGDARKDSSLHITAAQPGDTGLYLCAGVDNYGQNFVFGPGTRLSVLP
Vbeta: DAGVIQSPRHEVTEMGQEVTLRCKPISGHNSLFWYRQTMMRGLELLIYFNNNVPIDDSGMPEDRFSAKMPNASFSTLKIQPSEPRDSAVYFCASSIAALGFGELFFGEGSRLTVL
Turning to B20, the binding result is “recognises”.

B21: nwTCR-2006 (TCR, V domains shown)
Valpha: AQSVTQLDSHVSVSEGTPVLLRCNYSSSYSPSLFWYVQHPNKGLQLLLKYTSAATLVKGINGFEAEFKKSETSFHLTKPSAHMSDAAEYFCVVSITGFQKLVFGTGTRLLVSP
Vbeta: GAVVSQHPSRVICKSGTSVKIECRSLDFQATTMFWYRQFPKQSLMLMATSNEGSKATYEQGVEKDKFLINHASLTLSTLTVTSAHPEDSSFYICSATEDNEKLFFGSGTQLSVL
Consider B21, for which the binding result was “recognises”.

(Values after patent US20260256915A1 (published 2026).)
